Measurements: the Immune Epitope Database (IEDB)

Legend:
HLA-A*26:01 [1] = assay: IEDB peptide-MHC binding, purified MHC/competitive/fluorescence; filed as Kd, often an IC50 or EC50 that approximates it; ≥ and ≤ were set here for values at or beyond the usual limits of such assays
HLA-A*01:01 = assay: as above
HLA-B*15:01 [2] = assay: as above
HLA-A*68:02 [3] = assay: IEDB peptide-MHC binding, purified MHC/competitive/radioactivity; filed as Kd, often an IC50 or EC50 that approximates it; ≥ and ≤ were set here for values at or beyond the usual limits of such assays
HLA-A*02:17 = assay: as above
HLA-A*02:03 = assay: as above
HLA-A*02:01 [4] = assay: as above
HLA-A*02:06 = assay: as above
HLA-A*32:01 = assay: as above; details: source organism: Dengue virus 2 Peru/IQT2913/1996
HLA-B*18:01 [5] = assay: IEDB peptide-MHC binding, purified MHC/competitive/fluorescence; filed as Kd, often an IC50 or EC50 that approximates it; ≥ and ≤ were set here for values at or beyond the usual limits of such assays
HLA-A*69:01 = assay: as above; details: source organism: Orthohantavirus sinnombreense
HLA-B*39:01 = assay: as above
HLA-B*51:01 = assay: as above
HLA-B*27:03 = assay: as above
HLA-B*58:01 [6] = assay: as above
HLA-A*02:01 [7] = assay: as above; details: source organism: Orthohantavirus sinnombreense
HLA-B*46:01 [8] = assay: as above
HLA-A*68:02 [9] = assay: IEDB peptide-MHC binding, purified MHC/direct/fluorescence; filed as Kd, often an IC50 or EC50 that approximates it; ≥ and ≤ were set here for values at or beyond the usual limits of such assays
HLA-A*02:16 = assay: as above; details: source organism: Choclo virus
HLA-A*02:19 [10] = assay: as above; details: source organism: Choclo virus
HLA-A*03:01 [11] = assay: as above
HLA-A*02:12 [12] = assay: as above; details: source organism: Choclo virus
HLA-B*57:01 = assay: as above
HLA-A*68:02 [13] = assay: IEDB peptide-MHC binding, purified MHC/competitive/fluorescence; filed as Kd, often an IC50 or EC50 that approximates it; ≥ and ≤ were set here for values at or beyond the usual limits of such assays; details: source organism: Vibrio cholerae 2740-80
HLA-A*02:19 [14] = assay: as above; details: source organism: Vibrio cholerae 2740-80
HLA-A*03:01 [15] = assay: as above
HLA-A*02:12 [16] = assay: as above; details: source organism: Vibrio cholerae 2740-80
HLA-B*35:01 = assay: IEDB peptide-MHC binding, purified MHC/competitive/radioactivity; filed as Kd, often an IC50 or EC50 that approximates it; ≥ and ≤ were set here for values at or beyond the usual limits of such assays; details: source organism: Dengue virus 3 Martinique/1243/1999
HLA-B*27:05 = assay: IEDB peptide-MHC binding, purified MHC/direct/fluorescence; filed as Kd, often an IC50 or EC50 that approximates it; ≥ and ≤ were set here for values at or beyond the usual limits of such assays; details: source organism: Shigella sonnei Ss046
HLA-B*18:01 [17] = assay: as above; details: source organism: Shigella sonnei Ss046
HLA-A*31:01 = assay: as above; details: source organism: Shigella sonnei Ss046
HLA-B*15:17 = assay: as above; details: source organism: Shigella sonnei Ss046
HLA-A*11:01 = assay: as above; details: source organism: Shigella sonnei Ss046
HLA-B*58:01 [18] = assay: as above; details: source organism: Shigella sonnei Ss046
HLA-B*40:01 = assay: as above; details: source organism: Shigella sonnei Ss046
HLA-B*15:01 [19] = assay: as above; details: source organism: Shigella sonnei Ss046
HLA-A*02:01 [20] = assay: as above; details: source organism: Shigella sonnei Ss046
HLA-B*48:01 = assay: as above; details: source organism: Shigella sonnei Ss046
HLA-B*07:02 = assay: as above; details: source organism: Shigella sonnei Ss046
HLA-B*46:01 [21] = assay: as above; details: source organism: Shigella sonnei Ss046
HLA-A*26:01 [22] = assay: IEDB peptide-MHC binding, purified MHC/competitive/radioactivity; filed as Kd, often an IC50 or EC50 that approximates it; ≥ and ≤ were set here for values at or beyond the usual limits of such assays; details: source organism: Dengue virus 2 Jamaica/1409/1983
[23] = source organism: Escherichia coli 536
[24] = source organism: Dengue virus 3 Martinique/1243/1999
[25] = source organism: Dengue virus 3 China/80-2/1980
[26] = source organism: Dengue virus 2 Thailand/NGS-C/1944
[27] = source organism: Dengue virus 2 Peru/IQT2913/1996
[28] = source organism: Orthohantavirus sinnombreense
[29] = source organism: Francisella tularensis subsp. tularensis FSC198
[30] = source organism: Dengue virus 4 Dominica/814669/1981
[31] = source organism: Vibrio cholerae 2740-80
[32] = source organism: Dengue virus 2 Jamaica/1409/1983
[33] = source organism: Dengue virus 4 Philippines/H241/1956
[34] = source organism: Shigella sonnei Ss046
[35] = source organism: Salmonella enterica subsp. enterica serovar Typhi

## AVASLLDEY
HLA-A*26:01 [1]; [23]
  Kd: 871 nM
HLA-A*01:01; [23]
  Kd: 720 nM
HLA-B*15:01 [2]; [23]
  Kd: 96.2 nM

## FTMGVLCLA
HLA-A*68:02 [3]; [24]
  Kd: 12.5 nM
HLA-A*02:17; [25]
  Kd: 6740 nM
HLA-A*02:03; [24]
  Kd: 28.7 nM
HLA-A*02:01 [4]; [25]
  Kd: 12.3 nM
HLA-A*02:06; [24]
  Kd: 3.17 nM

## GLFPVSIPI
HLA-A*32:01
  Kd: 6.47 nM
HLA-A*02:17; [26]
  Kd: 69.9 nM
HLA-A*02:03; [27]
  Kd: 4.32 nM
HLA-A*02:01 [4]; [26]
  Kd: 2.13 nM

## GSFRKICGF
HLA-B*18:01 [5]; [28]
  Kd: ≥ 20000 nM
HLA-A*26:01 [1]; [28]
  Kd: ≥ 20000 nM
HLA-A*69:01
  Kd: ≥ 20000 nM
HLA-B*39:01; [28]
  Kd: ≥ 20000 nM
HLA-B*51:01; [28]
  Kd: ≥ 20000 nM
HLA-B*27:03; [28]
  Kd: ≥ 20000 nM
HLA-B*58:01 [6]; [28]
  Kd: 251 nM
HLA-B*15:01 [2]; [28]
  Kd: ≥ 20000 nM
HLA-A*02:01 [7]
  Kd: ≥ 20000 nM
HLA-B*46:01 [8]; [28]
  Kd: ≥ 20000 nM
HLA-A*68:02 [9]; source organism: Choclo virus
  Kd: ≥ 20000 nM
HLA-A*02:16
  Kd: ≥ 20000 nM
HLA-A*02:19 [10]
  Kd: ≥ 20000 nM
HLA-A*03:01 [11]; source organism: Choclo virus
  Kd: ≥ 20000 nM
HLA-A*02:12 [12]
  Kd: ≥ 20000 nM

## GVLIGGLEW
HLA-B*58:01 [6]; source organism: Influenza A virus (A/parakeet/Narita/92A/98(H9N2))
  Kd: 552 nM

## ISTHIGFSF
HLA-B*58:01 [6]; [29]
  Kd: 1.5 nM
HLA-B*46:01 [8]; [29]
  Kd: ≥ 20000 nM
HLA-B*57:01; source organism: Francisella tularensis subsp. holarctica LVS
  Kd: 125 nM

## KMSPGYVLGV
HLA-A*02:17; [30]
  Kd: 324 nM
HLA-A*02:03; [30]
  Kd: 0.57 nM
HLA-A*02:01 [4]; [30]
  Kd: 4.44 nM
HLA-A*02:06; [30]
  Kd: 70.4 nM

## KQLPPLAAW
HLA-B*18:01 [5]; [31]
  Kd: 6330 nM
HLA-A*26:01 [1]; [31]
  Kd: ≥ 20000 nM
HLA-B*39:01; [31]
  Kd: ≥ 20000 nM
HLA-B*51:01; [31]
  Kd: ≥ 20000 nM
HLA-B*27:03; [31]
  Kd: ≥ 20000 nM
HLA-A*68:02 [13]
  Kd: ≥ 20000 nM
HLA-A*02:19 [14]
  Kd: ≥ 20000 nM
HLA-A*03:01 [15]; [31]
  Kd: ≥ 20000 nM
HLA-B*46:01 [8]; [31]
  Kd: ≥ 20000 nM
HLA-A*02:12 [16]
  Kd: ≥ 20000 nM

## KSLIISFAF
HLA-B*58:01 [6]; source organism: Bacillus anthracis str. A0488
  Kd: 391 nM

## LLVISGLFPV
HLA-A*02:17; [26]
  Kd: 45.5 nM
HLA-A*02:03; [27]
  Kd: 4.84 nM
HLA-A*02:06; [27]
  Kd: 1.13 nM

## MLWMAEIPL
HLA-A*02:17; [24]
  Kd: 9.18 nM
HLA-B*35:01
  Kd: 408 nM
HLA-A*02:01 [4]; [24]
  Kd: 4.11 nM

## SLLFKTEDGV
HLA-A*02:17; [32]
  Kd: 719 nM
HLA-A*02:01 [4]; [32]
  Kd: 67.4 nM

## SLSVSLVLV
HLA-A*02:17; [32]
  Kd: 4450 nM
HLA-A*02:03; [32]
  Kd: 1.86 nM
HLA-A*02:01 [4]; [32]
  Kd: 58.5 nM

## TLLCLIPTA
HLA-A*02:17; [33]
  Kd: 9560 nM
HLA-A*02:01 [4]; [33]
  Kd: 5.77 nM

## TLMLVALLGA
HLA-A*02:17; [33]
  Kd: 11000 nM
HLA-A*02:03; [33]
  Kd: 14.4 nM
HLA-A*02:01 [4]; [33]
  Kd: 5.42 nM
HLA-A*02:06; [33]
  Kd: 378 nM

## VLDMGDPVK
HLA-A*01:01; source organism: Paraglaciecola sp. T6c
  Kd: 2590 nM
HLA-B*27:05
  Kd: ≥ 20000 nM
HLA-B*18:01 [17]
  Kd: ≥ 20000 nM
HLA-A*31:01
  Kd: ≥ 20000 nM
HLA-B*57:01; [34]
  Kd: ≥ 20000 nM
HLA-B*15:17
  Kd: ≥ 20000 nM
HLA-A*11:01
  Kd: 7000 nM
HLA-A*68:02 [9]; [34]
  Kd: ≥ 20000 nM
HLA-B*58:01 [18]
  Kd: ≥ 20000 nM
HLA-B*40:01
  Kd: ≥ 20000 nM
HLA-B*15:01 [19]
  Kd: ≥ 20000 nM
HLA-A*02:01 [20]
  Kd: ≥ 20000 nM
HLA-A*03:01 [11]; [34]
  Kd: 2090 nM
HLA-B*48:01
  Kd: ≥ 20000 nM
HLA-B*07:02
  Kd: ≥ 20000 nM
HLA-B*46:01 [21]
  Kd: ≥ 20000 nM

## VLLLVTHYAI
HLA-A*02:17; [25]
  Kd: 561 nM
HLA-A*02:01 [4]; [25]
  Kd: 219 nM

## WTMKILIGV
HLA-A*26:01 [22]
  Kd: 5360 nM
HLA-A*68:02 [3]; [32]
  Kd: 8.95 nM
HLA-A*02:17; [32]
  Kd: 6060 nM
HLA-A*02:01 [4]; [32]
  Kd: 22.5 nM
HLA-A*02:06; [32]
  Kd: 17.7 nM

## WVAGVQLLY
HLA-A*01:01; [35]
  Kd: 39 nM
HLA-A*03:01 [15]; [35]
  Kd: 486 nM
